Laboratory results published in patent US20230235054A1 (BIOATLA, published 2023).

T1: human Nectin-4-mFc (human, UniProt Q96NY8 32-349)
T1 construct: extracellular domain; Detection reagent of the bridging ELISA; also called recombinant human Nectin-4 ECD; not shown: mFc (mouse Fc)
T1 sequence (looked up): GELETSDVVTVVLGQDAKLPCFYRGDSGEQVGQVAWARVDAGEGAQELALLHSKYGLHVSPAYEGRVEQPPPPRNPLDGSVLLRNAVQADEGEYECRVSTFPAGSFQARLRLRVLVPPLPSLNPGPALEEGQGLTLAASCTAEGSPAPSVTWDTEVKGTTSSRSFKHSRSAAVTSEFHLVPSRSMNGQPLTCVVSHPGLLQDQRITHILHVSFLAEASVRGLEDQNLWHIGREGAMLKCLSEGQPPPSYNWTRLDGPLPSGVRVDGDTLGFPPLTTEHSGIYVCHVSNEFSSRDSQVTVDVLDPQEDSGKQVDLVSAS

B1: WT Nectin4 × WT CD3 (bispecific antibody)
VH: EVQLVESGGGLVQPGGSLRLSCAASGFTFSSYNMNWVRQAPGKGLEWVSYISSSSSTIYYADSVKGRFTISRDNAKNSLSLQMNSLRDEDTAVYYCARAYYYGMDVWGQGTTVTVSS
light: DIQMTQSPSSVSASVGDRVTITCRASQGISGWLAWYQQKPGKAPKFLIYAASTLQSGVPSRFSGSGSGTDFTLTISSLQPEDFATYYCQQAQSFPPTFGGGTKVEIKRTVAAPSVFIFPPSDEQLKSGTASVVCLLNNFYPREAKVQWKVDNALQSGNSQESVTEQDSKDSTYSLSSTLTLSKADYEKHKVYACEVTHQGLSSPVTKSFNRGECSRSGGGGEVQLVESGGGLVQPGGSLRLSCAASGFTFNTYAMNWVRQAPGKGLEWVARIRSKYNNYATYYADSVKDRFTISRDDSKNSLYLQMNSLKTEDTAVYYCVRHGNFGNSYVSWFAYWGQGTLVTVSSGGSGGSGGSGGSGGQAVVTQEPSLTVSPGGTVTLTCRSSTGAVTTSNYANWVQQKPGQAPRGLIGGTNKRAPWTPARFSGSLLGGKAALTITGAQAEDEADYYCALWYSNLWVFGGGTKLTVLSR
notes: elsewhere it is called a light chain variable region that also carries six anti-CD3 CDRs; also called BA-150-19-01-01-BF1; benchmark
B2: CAB Nectin4 × CAB CD3 (bispecific antibody)
VH: EVQLVESGGGLVQPGGSLRLSCAASGFTFSSYNMNWVRQAPGKGLEWVSYISSSSSTIYYADSVKGRFTISRDNAKNSLSLQMNSLRDEDTAVYYCARAYYYGMDKWGQGTTVTVSS
light: DIQMTQSPSSVSASVGDRVTITCRASQGISGWEAWYQQKPGKAPKFLIYAASTLQSGVPSRFSGSGSGTDFTLTISSLQPEDFATYYCQQAQSFPPTFGGGTKVEIKRTVAAPSVFIFPPSDEQLKSGTASVVCLLNNFYPREAKVQWKVDNALQSGNSQESVTEQDSKDSTYSLSSTLTLSKADYEKHKVYACEVTHQGLSSPVTKSFNRGECSRSGGGGEVQLVESGGGLVQPGGSLRLSCAASGFTFNTYAMNWVRQAPGKGLEWVARIRSKYNNYATYYADSVKDRFTISRDDSKNSLYLQMNSLKTEDTAVYYCVRHGNFPNSKVSWFQYWGQGTLVTVSSGGSGGSGGSGGSGGQAVVTQEPSLTVSPGGTVTLTCRSSTGAVTTSNYDNWVQQKPGQAPRGLIGGTNKRAPWTPARFSGSLLGGKAALTITGAQAEDEADYYCALWYSNLWVFGGGTKLTVLSR
notes: elsewhere it is called a light chain variable region that also carries six anti-CD3 CDRs; also called BA-150-30-03-12-BF19

Key:
[1] = biological target: T2, CD3 epsilon/delta heterodimer protein (human, UniProt P07766 23-126; P04234 22-105); assay: bridging ELISA, human CD3 coated, bispecific titrated, detection with human Nectin-4-mFc and anti-mouse IgG HRP, physiological pH (pH 7.4 in the protocol); the signal needs both arms
T2 construct: Capture antigen of the bridging ELISA; also called human CD3; recombinant human CD3 antigen
T2 sequence (P07766 23-126, stated change not applied, chain 1 of 2): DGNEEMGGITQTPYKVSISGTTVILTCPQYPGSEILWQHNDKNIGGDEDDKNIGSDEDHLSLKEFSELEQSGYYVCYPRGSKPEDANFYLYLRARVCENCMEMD
T2 sequence (P04234 22-105, stated change not applied, chain 2 of 2): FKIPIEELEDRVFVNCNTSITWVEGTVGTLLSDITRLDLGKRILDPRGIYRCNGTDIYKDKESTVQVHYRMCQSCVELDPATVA
Description: (§1) 1) Coat ELISA plates with 100 μL of 0.5 μg/mL recombinant human CD3 antigen in carbonate-bicarbonate coating buffer. 2) Cover plates with sealing film and incubate overnight at 4° C. 3) Decant plates and tap out residual liquid on a stack of paper towels. 4) Wash wells twice by dispensing 200 μL of pH 6.0 or pH 7.4 ELISA incubation buffer to the wells and completely aspirate the contents. 5) Add 200 μL of pH 6.0 or pH 7.4 ELISA incubation buffer to the wells. Cover with sealing film and place the plate onto a plate shaker set to 50 rpm for 60 minutes at room temperature. 6) Decant plates and tap out residual liquid on a stack of paper towels. 7) Serially dilute test articles in 3-fold dilutions starting at 3000 ng/mL in pH 6.0 or pH 7.4 ELISA incubation buffer. 8) Add 100 μL/well of diluted test articles to the plates 9) Cover with sealing film and place the plates onto a plate shaker set to 50 rpm for 60 minutes at room temperature. 10) Decant plates and tap out residual liquid on a stack of paper towels. 11) Wash wells three times by dispensing 200 μL of pH 6.0 or pH 7.4 ELISA wash buffer to the wells and completely aspirate the contents. 12) Dilute the HRP secondary antibody at 1:2500 in pH 6.0 or pH 7.4 ELISA incubation buffer. […] Read plates at 450 nm using PerkinElmer, EnSpire 2300 Multilabel Reader.

human Nectin-4-mFc = biological target: T1, human Nectin-4-mFc; assay: bridging ELISA, human CD3 coated, detection with human Nectin-4-mFc and anti-mouse IgG HRP, tumor pH (pH 6.0 in the protocol)
[2] = biological target: T2, CD3 epsilon/delta heterodimer protein; assay: bridging ELISA, human CD3 coated, bispecific titrated, detection with human Nectin-4-mFc and anti-mouse IgG HRP, tumor pH (pH 6.0 in the protocol); the signal needs both arms
Description: as §1

Binder	EC50 (read off the curve) [1] [µg/mL]	binding result (human Nectin-4-mFc)	EC50 (read off the curve) [2] [µg/mL]
B1	~0.03	binds	~0.05
B2	~0.2	binds	~0.03
